Experimental data published in patent publication US20110104143.

Key:
[1] = target: cIAP1, Q13490
[2] = target: DDX3 (endogenous, full-length human DDX3 in tumor cell lysates), O00571
Sequence of DDX3 (endogenous, full-length human DDX3 in tumor cell lysates), O00571 (O00571 whole entry, looked up): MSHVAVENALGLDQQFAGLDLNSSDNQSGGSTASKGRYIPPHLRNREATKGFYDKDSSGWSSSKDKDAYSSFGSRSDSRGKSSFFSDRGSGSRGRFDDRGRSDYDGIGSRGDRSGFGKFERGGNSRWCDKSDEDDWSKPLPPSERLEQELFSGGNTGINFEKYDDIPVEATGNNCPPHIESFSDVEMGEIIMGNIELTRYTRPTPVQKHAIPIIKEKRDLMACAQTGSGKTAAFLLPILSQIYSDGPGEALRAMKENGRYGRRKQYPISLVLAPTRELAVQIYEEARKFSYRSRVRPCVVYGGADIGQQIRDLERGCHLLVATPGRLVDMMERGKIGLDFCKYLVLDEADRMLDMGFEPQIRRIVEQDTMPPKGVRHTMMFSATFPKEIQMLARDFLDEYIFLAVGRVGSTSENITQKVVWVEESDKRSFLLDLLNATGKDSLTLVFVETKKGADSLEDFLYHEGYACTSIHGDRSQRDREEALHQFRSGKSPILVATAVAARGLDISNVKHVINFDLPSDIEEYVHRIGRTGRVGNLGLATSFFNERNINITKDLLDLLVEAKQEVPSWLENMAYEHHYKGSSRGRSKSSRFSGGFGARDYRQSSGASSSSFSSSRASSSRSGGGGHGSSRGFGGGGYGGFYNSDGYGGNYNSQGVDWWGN

Sequence of cIAP1, Q13490 (Q13490 whole entry): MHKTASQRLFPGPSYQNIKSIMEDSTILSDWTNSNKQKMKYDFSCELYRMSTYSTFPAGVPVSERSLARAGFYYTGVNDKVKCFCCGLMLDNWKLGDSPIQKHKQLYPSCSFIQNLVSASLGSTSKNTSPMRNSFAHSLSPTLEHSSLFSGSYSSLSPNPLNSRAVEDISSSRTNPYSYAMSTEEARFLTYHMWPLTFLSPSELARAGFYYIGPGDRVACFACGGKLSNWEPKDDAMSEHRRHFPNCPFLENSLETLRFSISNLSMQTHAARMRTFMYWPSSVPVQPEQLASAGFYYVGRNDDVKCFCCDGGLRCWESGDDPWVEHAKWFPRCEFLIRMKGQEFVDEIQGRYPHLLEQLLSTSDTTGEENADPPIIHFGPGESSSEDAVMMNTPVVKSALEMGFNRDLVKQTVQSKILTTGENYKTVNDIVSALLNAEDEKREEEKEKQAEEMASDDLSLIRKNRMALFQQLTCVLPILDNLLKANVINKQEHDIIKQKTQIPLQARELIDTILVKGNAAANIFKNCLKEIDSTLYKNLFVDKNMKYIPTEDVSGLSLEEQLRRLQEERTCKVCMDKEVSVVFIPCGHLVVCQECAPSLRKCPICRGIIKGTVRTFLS

Protein	caspase-8 protease activity on the fluorogenic substrate Ac-IETD-AMC [1]	cleavage of DR5-associated DDX3 by active caspase, Western blot with anti-DDX3 antibody [2]
Active Caspase-8 (protein) SESQTLDKVYQMKSKPRGYCLIINNHNFAKAREKVPKLHSIRDRNGTHLDAGALTTTFEELHFEIKPHDDCTVEQIYEILKIYQLMDHSNMDCFICCILSHGDKGIIYGTDGQEAPIYELTSQFTGLKCPSLAGKPKVFFIQACQGDNYQKGIPVETDSEEQPYLEMDLSSPQTRYIPDEADFLLGMATVNNCVSYRNPAEGTWYIQSLCQSLRERCPRGDDILTILTEVNYEVSNKDDKKNMGKQMPQPTFTLRKKLVFPSD	purified cIAP1 also suppressed caspase-8 protease activity completely	DDX3 cleavage by caspase-8 in resistant cells was highly attenuated compared to sensitive cells
Active Caspase-2 (protein) GPVCLQVKPCTPEFYQTHFQLAYRLQSRPRGLALVLSNVHFTGEKELEFRSGGDVDHSTLVTLFKLLGYDVHVLCDQTAQEMQEKLQNFAQLPAHRVTDSCIVALLSHGVEGAIYGVDGKLLQLQEVFQLFDNANCPSLQNKPKMFFIQACRGDETDRGVDQQDGKNHAGSPGCEESDAGKEKLPKMRLPTRSDMICGYACLKGTAAMRNTKRGSWYIEALAQVFSERACDMHVADMLVKVNALIKDREGYAPGTEFHRCKEMSEYCSTLCRHLYLFPGHPPT		caspase-2 exhibited similar protease potential in both cells
